# Reference: patent US5453362, “Eukaryotic transcription protein; host cell factor” (Tularik Inc.)
# B1: (Octa+)… ICP0 IE element (dsDNA)
# DNA 1: ATGCTAATGATAT
# DNA 2: ATATCATTAGCAT
# Assays:
# [1] = target: GST-VP16 with insect extract, no Oct-1 POU (Herpes simplex virus, UniProt P06492 P06492:5-411); assay: EMSA; no specific complex with SL2 or Sf9 extract without Oct-1 POU; settings: tags: GST; label: 32P end
# [2] = target: VP16-induced complex: Oct-1 POU domain + GST-VP16 + partially purified human HCF (Homo sapiens / Herpes simplex virus, UniProt P14859;P06492;P51610 P14859:280-438,P06492:5-411,P51610:2-2035); assay: EMSA; 50 mM KCl, pH 7.9, 1 mM EDTA, 30 C; complex disrupted by anti-HCF sera (FIG. 4, WGA fraction); settings: tags: GST on VP16; Oct-1 POU recombinant from E. coli, GST removed by thrombin; label: 32P end
# Sequence of VP16-induced complex: Oct-1 POU domain + GST-VP16 + partially purified human HCF (P14859 280-438, chain 1 of 3): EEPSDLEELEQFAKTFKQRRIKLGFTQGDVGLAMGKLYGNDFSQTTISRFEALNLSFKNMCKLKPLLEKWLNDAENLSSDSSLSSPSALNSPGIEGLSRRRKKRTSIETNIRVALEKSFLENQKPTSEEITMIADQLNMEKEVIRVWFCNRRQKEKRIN
# Sequence of VP16-induced complex: Oct-1 POU domain + GST-VP16 + partially purified human HCF (P06492 5-411, chain 2 of 3): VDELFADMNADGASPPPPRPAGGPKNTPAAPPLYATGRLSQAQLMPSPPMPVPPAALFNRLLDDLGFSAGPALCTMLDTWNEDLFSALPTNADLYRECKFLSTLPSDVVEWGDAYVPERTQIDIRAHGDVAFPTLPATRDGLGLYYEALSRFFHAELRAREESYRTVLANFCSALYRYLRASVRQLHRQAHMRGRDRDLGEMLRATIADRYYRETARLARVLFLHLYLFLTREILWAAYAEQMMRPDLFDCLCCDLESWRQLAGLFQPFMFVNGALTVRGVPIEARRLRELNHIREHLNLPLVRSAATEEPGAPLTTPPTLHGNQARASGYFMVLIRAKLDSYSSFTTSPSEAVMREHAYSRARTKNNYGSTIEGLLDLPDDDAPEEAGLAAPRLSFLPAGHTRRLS
# Sequence of VP16-induced complex: Oct-1 POU domain + GST-VP16 + partially purified human HCF (P51610 2-2035, chain 3 of 3): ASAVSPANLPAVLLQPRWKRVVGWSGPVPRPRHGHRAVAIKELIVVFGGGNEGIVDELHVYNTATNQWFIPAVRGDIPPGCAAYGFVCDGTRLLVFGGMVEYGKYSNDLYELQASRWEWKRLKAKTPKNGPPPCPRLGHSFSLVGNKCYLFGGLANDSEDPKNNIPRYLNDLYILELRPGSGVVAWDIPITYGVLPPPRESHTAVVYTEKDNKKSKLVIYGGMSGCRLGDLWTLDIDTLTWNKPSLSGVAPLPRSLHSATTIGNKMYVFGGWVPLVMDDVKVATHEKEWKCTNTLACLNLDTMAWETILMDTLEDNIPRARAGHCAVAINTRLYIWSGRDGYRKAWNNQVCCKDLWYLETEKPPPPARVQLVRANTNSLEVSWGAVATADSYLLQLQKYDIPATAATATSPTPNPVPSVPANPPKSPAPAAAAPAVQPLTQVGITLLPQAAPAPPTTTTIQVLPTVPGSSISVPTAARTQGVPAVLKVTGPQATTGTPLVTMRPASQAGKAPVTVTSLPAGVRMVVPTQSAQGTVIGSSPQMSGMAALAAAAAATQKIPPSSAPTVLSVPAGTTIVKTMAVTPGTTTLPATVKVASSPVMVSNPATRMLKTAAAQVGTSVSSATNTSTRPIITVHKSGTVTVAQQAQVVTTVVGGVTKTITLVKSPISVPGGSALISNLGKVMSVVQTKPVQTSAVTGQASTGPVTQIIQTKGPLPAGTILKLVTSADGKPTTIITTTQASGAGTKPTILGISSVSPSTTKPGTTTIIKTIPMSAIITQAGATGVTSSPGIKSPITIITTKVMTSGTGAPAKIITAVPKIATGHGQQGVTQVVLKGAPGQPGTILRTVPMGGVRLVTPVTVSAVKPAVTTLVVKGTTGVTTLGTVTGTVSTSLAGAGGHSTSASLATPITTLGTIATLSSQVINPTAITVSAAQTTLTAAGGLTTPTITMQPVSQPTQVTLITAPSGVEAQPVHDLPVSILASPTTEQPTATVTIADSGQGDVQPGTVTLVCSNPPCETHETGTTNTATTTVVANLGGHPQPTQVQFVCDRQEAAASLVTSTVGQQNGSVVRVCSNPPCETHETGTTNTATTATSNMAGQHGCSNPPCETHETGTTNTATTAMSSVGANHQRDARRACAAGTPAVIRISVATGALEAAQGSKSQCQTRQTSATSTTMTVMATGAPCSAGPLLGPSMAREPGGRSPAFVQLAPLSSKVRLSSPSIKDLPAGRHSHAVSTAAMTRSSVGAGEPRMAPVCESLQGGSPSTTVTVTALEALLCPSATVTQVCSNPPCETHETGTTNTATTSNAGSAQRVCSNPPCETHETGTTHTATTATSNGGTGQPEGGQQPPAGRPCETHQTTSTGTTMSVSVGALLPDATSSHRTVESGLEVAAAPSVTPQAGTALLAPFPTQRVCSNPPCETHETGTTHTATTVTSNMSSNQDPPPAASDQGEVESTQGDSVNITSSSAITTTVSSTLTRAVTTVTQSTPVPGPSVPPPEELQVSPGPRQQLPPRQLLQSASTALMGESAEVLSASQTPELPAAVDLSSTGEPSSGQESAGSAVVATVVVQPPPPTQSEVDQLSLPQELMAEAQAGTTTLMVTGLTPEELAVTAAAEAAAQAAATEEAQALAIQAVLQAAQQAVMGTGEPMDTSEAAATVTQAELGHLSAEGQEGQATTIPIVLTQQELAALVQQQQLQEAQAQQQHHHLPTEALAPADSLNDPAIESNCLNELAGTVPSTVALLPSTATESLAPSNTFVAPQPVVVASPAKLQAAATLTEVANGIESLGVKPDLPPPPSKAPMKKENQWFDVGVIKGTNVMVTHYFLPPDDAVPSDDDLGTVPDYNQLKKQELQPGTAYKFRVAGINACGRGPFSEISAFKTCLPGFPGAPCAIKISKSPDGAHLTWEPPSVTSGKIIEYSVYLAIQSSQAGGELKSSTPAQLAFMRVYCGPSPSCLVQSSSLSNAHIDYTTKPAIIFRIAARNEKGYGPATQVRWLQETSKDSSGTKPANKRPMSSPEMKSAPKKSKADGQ
# Sequence of GST-VP16 with insect extract, no Oct-1 POU (P06492 5-411, one chain of several): as the sequence (P06492 5-411, chain 2 of 3) above
binder,measurement,setting,value
B1,binding result,[1],no binding
same,binding result,[2],binds
